Experiment [1] addresses T1, Tyrp-1 on B16F10 melanoma cells (UniProt P07147 25-537, limits assumed).
T1 construct: whole, on cells; also called Tyrp-1-positive B16F10 melanoma cells; B16F10 tumor cells
The experiment can be described thus: flow cytometry on B16F10 tumor cells, 60 ug/mL with four-fold dilutions, goat anti-mouse PE secondary (FIG. 50A). How it is done:
60 μg/mL of indicated antibodies with four-fold dilutions were added to 2×10⁵ B16F10 tumor cells (FIG. 50A) or EL4-mNKG2D cells (FIG. 50B). Binding was assessed using a goat anti-mouse PE secondary antibody followed by flow cytometric analysis.
(In general: Flow cytometry measures light scatter and fluorescence of single cells or particles in a stream.)

Experiment [2] deals with T2, CD33 expressed on MV4-11 human AML cells (human, UniProt P20138 18-364).
T2 construct: whole, on cells; also called cell-expressed CD33
The experiment can be described thus: flow cytometry on MV4-11 cells, anti-human IgG secondary. The text has this: Human AML cell line MV4-11, expressing CD33 was used to assay the binding of TriNKETs to the tumor associated antigen.

T2 sequence (P20138 18-364): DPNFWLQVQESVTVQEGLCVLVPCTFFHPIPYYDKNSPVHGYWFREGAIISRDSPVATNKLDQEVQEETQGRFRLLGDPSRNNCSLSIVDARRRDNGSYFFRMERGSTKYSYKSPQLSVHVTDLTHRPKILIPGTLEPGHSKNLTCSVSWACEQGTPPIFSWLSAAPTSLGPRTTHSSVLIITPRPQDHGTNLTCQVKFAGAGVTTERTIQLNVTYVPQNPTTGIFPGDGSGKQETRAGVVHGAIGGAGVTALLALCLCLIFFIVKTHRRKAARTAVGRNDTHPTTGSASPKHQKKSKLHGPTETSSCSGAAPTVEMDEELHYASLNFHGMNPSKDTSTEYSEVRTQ

B1: mcFAE-C26.99 TriNKET (bispecific antibody, mouse IgG2c)
light 1: DIQMTQSPSTLSASVGDRVTITCRASQSISSWLAWYQQKPGKAPKLLIYKASSLESGVPSRFSGSGSGTEFTLTISSLQPDDFATYYCQQYGSFPITFGGGTKVEIKRADAAPTVSIFPPSSEQLTSGGASVVCFLNNFYPKDINVKWKIDGSERQNGVLNSWTDQDSKDSTYSMSSTLTLTKDEYERHNSYTCEATHKTSTSPIVKSFNRNEC
heavy 1: QVQLQQWGAGLLKPSETLSLTCAVYGGSFSGYYWSWIRQPPGKGLEWIGEIDHSGSTNYNPSLKSRVTISVDTSKNQFSLKLSSVTAADTAVYYCARARGPWSFDPWGQGTLVTVSSAKTTAPSVYPLAPVCGGTTGSSVTLGCLVKGYFPEPVTLTWNSGSLSSGVHTFPALLQSGLYTLSSSVTVTSNTWPSQTITCNVAHPASSTKVDKKIEPRVPITQNPCPPLKECPPCAAPDLLGGPSVFIFPPKIKDVLMISLSPMVTCVVVDVSEDDPDVQISWFVNNVEVHTAQTQTHREDYNSTLRVVSALPIQHQDWMSGKEFKCKVNNRALPSPIEKTISKPRGPVRAPQVYVLPPPAEEMTKKEFSLTCMIKGFLPAEIAVDWTSNGRTEQNYKNTATVLDSDGSYFMYSRLRVQKSTWERGSLFACSVVHEGLHNHLTTKTISRSLGK
light 2: DIQMSQSPASLSASVGETVTITCRASGNIYNYLAWYQQKQGKSPHLLVYDAKTLADGVPSRFSGSGSGTQYSLKISSLQTEDSGNYYCQHFWSLPFTFGSGTKLEIKRADAAPTVSIFPPSSEQLTSGGASVVCFLNNFYPKDINVKWKIDGSERQNGVLNSWTDQDSKDSTYSMSSTLTLTKDEYERHNSYTCEATHKTSTSPIVKSFNRNEC
heavy 2: EVQLQQSGAELVRPGALVKLSCKTSGFNIKDYFLHWVRQRPDQGLEWIGWINPDNGNTVYDPKFQGTASLTADTSSNTVYLQLSGLTSEDTAVYFCTRRDYTYEKAALDYWGQGASVIVSSAKTTAPSVYPLAPVCGGTTGSSVTLGCLVKGYFPEPVTLTWNSGSLSSGVHTFPALLQSGLYTLSSSVTVTSNTWPSQTITCNVAHPASSTKVDKKIEPRVPITQNPCPPLKECPPCAAPDLLGGPSVFIFPPKIKDVLMISLSPMVTCVVVDVSEDDPDVQISWFVNNVEVHTAQTQTHREDYNSTLRVVSALPIQHQDWMSGKEFKCKVNNRALPSPIEKTISKPRGPVRAPQVYVLPPPAEEMTKKEFSLTCMITGFLPAEIAVDWTSNGRTEQNYKNTATVLDSDGSYLMYSKLTVQKSTWERGSLFACSVVHEGLHNHLTTKTISRSLGK
notes: also called murine cFAE-C26.99 TriNKET; TA99 TriNKET
Turning to B1, the binding result in experiment [1] is reported as “binds”.

B2: CD33-TriNKET-C26 (ADI-28226 and a CD33-binding domain) (bispecific antibody, V domains shown)
VH 1: QVQLQQWGAGLLKPSETLSLTCAVYGGSFSGYYWSWIRQPPGKGLEWIGEIDHSGSTNYNPSLKSRVTISVDTSKNQFSLKLSSVTAADTAVYYCARARGPWSFDPWGQGTLVTVSS
VL 1: DIQMTQSPSTLSASVGDRVTITCRASQSISSWLAWYQQKPGKAPKLLIYKASSLESGVPSRFSGSGSGTEFTLTISSLQPDDFATYYCQQYGSFPITFGGGTKVEIK
VH 2: QVQLVQSGAEVKKPGASVKVSCKASGYTFTDYVVHWVRQAPGQGLEWMGYINPYNDGTKYNEKFKGRVTMTRDTSISTAYMELSRLRSDDTAVYYCARDYRYEVYGMDYWGQGTLVTVSS
VL 2: DIVLTQSPASLAVSPGQRATITCTASSSVNYIHWYQQKPGQPPKLLIYDTSKVASGVPARFSGSGSGTDFTLTINPVEANDTANYYCQQWRSYPLTFGQGTKLEIK
notes: also called C26-TriNKET-CD33; CD33-targeting TriNKET
For the molecule B2, the binding result in experiment [2] was “binds”.

B3: CD33-TriNKET-F04 (ADI-29404 and a CD33-binding domain) (bispecific antibody, V domains shown)
VH 1: QVQLQQWGAGLLKPSETLSLTCAVYGGSFSGYYWSWIRQPPGKGLEWIGEIDHSGSTNYNPSLKSRVTISVDTSKNQFSLKLSSVTAADTAVYYCARARGPWSFDPWGQGTLVTVSS
VL 1: DIQMTQSPSTLSASVGDRVTITCRASQSISSWLAWYQQKPGKAPKLLIYKASSLESGVPSRFSGSGSGTEFTLTISSLQPDDFATYYCEQYDSYPTFGGGTKVEIK
VH 2: QVQLVQSGAEVKKPGASVKVSCKASGYTFTDYVVHWVRQAPGQGLEWMGYINPYNDGTKYNEKFKGRVTMTRDTSISTAYMELSRLRSDDTAVYYCARDYRYEVYGMDYWGQGTLVTVSS
VL 2: DIVLTQSPASLAVSPGQRATITCTASSSVNYIHWYQQKPGQPPKLLIYDTSKVASGVPARFSGSGSGTDFTLTINPVEANDTANYYCQQWRSYPLTFGQGTKLEIK
notes: also called F04-TriNKET-CD33; CD33-targeting TriNKET
On to B3, for which the binding result in experiment [2] is recorded as “binds”.
